Measurements taken from the RNAGym collection of RNA variant scans (doi:10.7554/elife.90254).

B1: LINE1-mini (parent)
chain: GGCAGAGCUCAACACAGCGUGGCAAAGUGGCUGUGGCUAGACUGCC

Variants of: B1
Experiment: self-cleavage, relative activity (ratio to wild type); higher = more cleavage; in vitro, sequencing; the parent is a self-cleaving ribozyme

| Variant | self-cleavage |
| --- | --- |
| GGCAGAGCUAAACACAGCGUGGCAAAGUAGCUGUGGCUAGACUGCC | 0.06 |
| GGCAGAGCUCAACACAGCCUGGCAAAGUGGCUGUGGCUAGACUGCC | 0.5 |
| GGCAGAUCUCAACACAGCGUGGCAAAGUGGCUGUUGCUAGACUGCC | 0.1 |
| CGCAGAGCUCCACACAGCGUGGCAAAGUGGCUGUGGCUAGACUGCC | 0.01 |
| GGCACAGCUCUACACAGCGUGGCAAAGUGGCUGUGGCUAGACUGCC | 0.03 |
| GGCAGAGCUCAACACAGCGUGGCAAAGUGGCUGUGGCUAAAGUGCC | 0.09 |
| GGCAGAGCUCAACACAGCGUGGCAAAGUGGCUGUGGUUAGACUGCC | 0.07 |
| GGCAGAGCUCAACACAGCGUGGCGAAGUAGCUGUGGCUAGACUGCC | 0.8 |
| GGCAGAGCUCAACACAGCGUGGCAAAGAGGCUGUUGCUAGACUGCC | 0.18 |
| GGAAGAGCUCAACACAGCGUGGCAAAGUGGCUGAGGCUAGACUGCC | 0.11 |
| CGCAGAGCUCAACACAGCGUAGCAAAGUGGCUGUGGCUAGACUGCC | 0.42 |
| GGAAGAUCUCAACACAGCGUGGCAAAGUGGCUGUGGCUAGACUGCC | 0.4 |
| GGCAGAGCUCAACACAGCGUCGCAAACUGGCUGUGGCUAGACUGCC | 0.52 |
| GGCAGAGCUCAACACAGCCUGGCAAAGUGGCUGUCGCUAGACUGCC | 0.17 |
| GGCAGAGCUCAACACAGCGUGGCAAAGUGGCUGUGGGCAGACUGCC | 0.04 |
| GGCAGAGCUCAACACAGCGUGGCAAAGUGGCUGCGUCUAGACUGCC | 0.06 |
| GGCAGAGCUCAACACAGCGUGGCGAAGUGGCUGUGGCUAGGCUGCC | 0.6 |
| GGCAUAGCUCAACACAGCGUGCCAAAGUGGCUGUGGCUAGACUGCC | 0.06 |
| GGCAGAGAUCAACACAGCGUGGCAAAGUGGCUGUGGCGAGACUGCC | 0.07 |

| Variant | self-cleavage |
| --- | --- |
| GGCAGAGCUCAACACAGCGUGGCAAAGUGGCUGAGGCUAGACCGCC | 0.04 |
| GGCAGAGCUCAACACAGCGUGGCAAAGCGGAUGUGGCUAGACUGCC | 0.87 |
| GGCAGAGCUCAACACAGCGUGGCGAAGUGGCUGUGGCAAGACUGCC | 0.76 |
| GGCAGAGCUCAACACAGCGUGGCAGAGUGGCAGUGGCUAGACUGCC | 0.11 |
| AGCAGAGCUCAACACAGCGUGCCAAAGUGGCUGUGGCUAGACUGCC | 1.94 |
| GGCAGAGGUCAACACAGCGUGGCAAAGUGCCUGUGGCUAGACUGCC | 0.1 |
| GGCAGAGCUCAACACAGCGCGGCAAAGUGGCUUUGGCUAGACUGCC | 0.14 |
| GGCAGAGCUCAUCACAGCGUGGCAAAGUGGAUGUGGCUAGACUGCC | 0.04 |
| GGCAGUGCUCAACACAGCGUGGCAAAGUGGCUGUGGCUAGCCUGCC | 0.07 |
| GGCAGAGCUCAACACAGCAUGGCAAAGUGGCUGUGGCUAGACUGCG | 1.53 |
| GGCAGAGCUCAACACAGCGUGGCAACGUGGAUGUGGCUAGACUGCC | 0.38 |
| GGCAGAGCUCAACACAGGGUGGCAUAGUGGCUGUGGCUAGACUGCC | 0.51 |
| GGCAAGGCUCAACACAGCGUGGCAAAGUGGCUGUGGCUAGACUGCC | 0.13 |
| GGCAGAGCUCAACACAGCCUGGCUAAGUGGCUGUGGCUAGACUGCC | 0.6 |
| GGCAGAGCUCAACACAGCGUGGCAAAGUGGCUGUGCAUAGACUGCC | 0.1 |
| GGCAGAGCUCAACACAGCGUGGCUAAGGGGCUGUGGCUAGACUGCC | 0.39 |
| GGCAGAGCUCAACACAGCGUGGCAAAGUGGAUGUGCCUAGACUGCC | 0.13 |
| GGCAGAGCUCAACACAGCGUGGCAAAGUGGCUGAGGCUAGACUGGC | 0.15 |
| GGCAGAGCUCAACAGAUCGUGGCAAAGUGGCUGUGGCUAGACUGCC | 0.05 |

| Variant | self-cleavage |
| --- | --- |
| GGCAGAGCUCAACACAGCGUGGCAAAGUGGCUGUGGCUAGACUGAG | 0.36 |
| GGCAGAGCUCAACACCGCGUGGCAAAGUAGCUGUGGCUAGACUGCC | 0.57 |
| GGCAGAGCUCAACACAACGUGGCAAAUUGGCUGUGGCUAGACUGCC | 0.31 |
| GACAGAGCUCAACACAGCGUGGCAAAGUGGCUGUGACUAGACUGCC | 0.69 |
| GGCAGAGCGCAACCCAGCGUGGCAAAGUGGCUGUGGCUAGACUGCC | 0.2 |
| GGCAGAGCUCAACACAGCGCGGCAGAGUGGCUGUGGCUAGACUGCC | 0.53 |
| GGCAGAGCUCAACACAGCGUGGCAAAGUGGCUGAGGUUAGACUGCC | 0.04 |
| GGCAGACCUCACCACAGCGUGGCAAAGUGGCUGUGGCUAGACUGCC | 0.03 |
| GGCAGAGCUCAACACAGAGUGGCAAAGUGGCUGUGGCUAGACUUCC | 0.08 |
| GGCAGAGUUCAACACAGCGUGGCAAAGUGUCUGUGGCUAGACUGCC | 0.29 |
| GUCAGAGCUCAACACAGCGUGGGAAAGUGGCUGUGGCUAGACUGCC | 0.04 |
| GGCAGACCUCAACACAGCGUGGCGAAGUGGCUGUGGCUAGACUGCC | 0.12 |
| GGCAGAGCUCAACACAGCGUGGCAAAAUGGCUGUGGCUAGACUUCC | 0.3 |
| GGCAGAGCUCGACACAGCGUGGCAAAGUGGCUGUGGCUAAACUGCC | 0.03 |
| GGCAGAGCUCAACACAGCGUGGAAAAGCGGCUGUGGCUAGACUGCC | 0.88 |
| GGGAGAGCUCAACACAGCGUGGCAAAGUGGCUGUAGCUAGACUGCC | 0.23 |
| GGCAGAGCUUAACACAGCGUGGCAAAGUGGCUGUGGCUAGACUGCG | 0.32 |
| GGCAGCGCUCGACACAGCGUGGCAAAGUGGCUGUGGCUAGACUGCC | 0.02 |
